Article PMC2848764, “The Arabidopsis EAR-motif-containing protein RAP2.1 functions as an active transcriptional repressor to keep stress responses under tight control”

B1: mDRE (dsDNA)
DNA 1: AATTCAAAAGATATACTACTTTTATGAGTT
DNA 2: AACTCATAAAAGTAGTATATCTTTTGAATT
B2: wDRE (dsDNA)
DNA 1: AATTCAAAAGATATACTACCGACATGAGTT
DNA 2: AACTCATGTCGGTAGTATATCTTTTGAATT

Target: GST-RAP2.1 N-terminal 120 aa (AP2 DNA-binding domain) (UniProt Q8LC30 1-120)
Assay: EMSA; 100 ng probe, 5 or 10 ug protein; EMSA as in cited ref 42; buffer, salt, pH and temperature not given; 100 ng probe with 5 or 10 ug protein
Settings: protein: recombinant; tags: GST (pGEX6P-1, N-terminal)

Sequence of GST-RAP2.1 N-terminal 120 aa (AP2 DNA-binding domain) (Q8LC30 1-120): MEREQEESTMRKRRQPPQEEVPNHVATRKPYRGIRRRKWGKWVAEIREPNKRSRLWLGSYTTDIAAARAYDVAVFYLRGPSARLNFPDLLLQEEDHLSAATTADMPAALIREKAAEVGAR

Binder	binding result
B1	no binding
B2	binds
